Test results reported in patent US20190389933A1 (published 2019).

B1: XENP22553, humanized variant 1C11[PD-1]_H3L3 of anti-PD-1 clone 1C11 (antibody, V domains shown)
VH: QIQLVQSGSELKKPGASVKVSCKASGYTFTHYGMNWVRQAPGQGLEWMGWINTYTGEPTYADGFTGRFVFSLDTSVSTAYLQISSLKAEDTAVYFCARDYYGSSPYWGQGTLVTVSS
VL: DVLMTQSPDSLAVSLGERATINCKSSQSIVHSNGNTYLEWYQQKPGQSPKLLIYKVSNRFSGVPDRFSGSGSGTDFTLTISSLQAEDVAVYYCFQGSHVPNTFGGGTKVEIKR
B2: IL2Rbeta (receptor)
chain: AVNGTSQFTCFYNSRANISCVWSQDGALQDTSCQVHAWPDRRRWNQTCELLPVSQASWACNLILGAPDSQKLTTVDIVTLRVLCREGVRWRVMAIQDFKPFENLRLMAPISLQVVHVETHRCNISWEISQASHYFERHLEFEARTLSPGHTWEEAPLLTLKQKQEWICLETLTPDTQYEFQVRVKPLQGEFTTWSPWSQPLAFRTKPAALGKD

Experiments:
histidine-tagged PD-1 = histidine-tagged PD-1 (UniProt Q15116 25-167); assay: Octet
histidine-tagged PD-1, sequence (Q15116 25-167): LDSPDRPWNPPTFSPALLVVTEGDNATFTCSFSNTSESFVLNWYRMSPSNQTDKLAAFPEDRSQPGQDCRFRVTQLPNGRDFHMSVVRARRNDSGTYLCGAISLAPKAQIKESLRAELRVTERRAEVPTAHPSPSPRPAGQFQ

21480B = assay: Octet

Binder | Kd (histidine-tagged PD-1) | Kd (21480B)
B1 | 19.1 nM | –
B2 | – | 8.1 nM
